Earlier results in publication PMC12071589.

Biological target: TROP2 (Homo sapiens) (UniProt P09758)
Sequence (P09758 27-274): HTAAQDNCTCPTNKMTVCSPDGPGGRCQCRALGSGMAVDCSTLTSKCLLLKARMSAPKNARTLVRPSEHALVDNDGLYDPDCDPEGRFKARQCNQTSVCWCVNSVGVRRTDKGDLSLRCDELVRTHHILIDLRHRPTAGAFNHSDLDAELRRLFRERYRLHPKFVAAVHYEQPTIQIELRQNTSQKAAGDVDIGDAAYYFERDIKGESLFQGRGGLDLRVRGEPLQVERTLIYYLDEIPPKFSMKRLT

Kd: 0.26 nM
Substance: sacituzumab
